Measurements reported in US20250044282A1.

Target: HIV-1 integrase fused to HA tag at the C terminus (INHA) (HIV-1 LAI (BRU)) (UniProt P03367)

With “HIV-1 CA (capsid protein) (from UniProt P03348 133-363)” the percentage of colocalization was 70%.
